pKd: −log10 of the molar value.

In this assay the target is complement component 3b (C3b) (human) (UniProt P01024). In words: SPR; equilibrium: each FH sample injected at 0.0156-2 uM, in duplicate, over 1500 RUs of C3b amine-coupled on a Biacore CM5 sensor chip; fit to a 1:1 equilibrium model (Biacore software). For orientation: SPR reads the build-up and loss of mass on a sensor chip optically.
Broadly, the pKd is −log10 of the Kd, conventionally taken in molar units. For the substance “FH variant Arg175Pro (from UniProt P08603 19-1231) (natural protein)”, the pKd was 5.19.
The figure for “FH variant Arg567Gly (from UniProt P08603 19-1231) (natural protein)” is 5.38; for “FH variant Arg1210Cys (from UniProt P08603 19-1231) (natural protein)” it is 5.71.
Regarding “FH variant Arg53His (from UniProt P08603 19-1231) (natural protein)”, the pKd is 5.50.
Substance “control factor H (FH) (from UniProt P08603 19-1231) (natural protein)” had a pKd of 5.77.

For the origin of these results see PMC9716232.
